Target: Syk tyrosine kinase (mouse (endogenous in NMuMG)) (UniProt P48025)
Experiment: co-IP

MMTV Env surface unit (SU, gp52), sequence (P03374 99-688): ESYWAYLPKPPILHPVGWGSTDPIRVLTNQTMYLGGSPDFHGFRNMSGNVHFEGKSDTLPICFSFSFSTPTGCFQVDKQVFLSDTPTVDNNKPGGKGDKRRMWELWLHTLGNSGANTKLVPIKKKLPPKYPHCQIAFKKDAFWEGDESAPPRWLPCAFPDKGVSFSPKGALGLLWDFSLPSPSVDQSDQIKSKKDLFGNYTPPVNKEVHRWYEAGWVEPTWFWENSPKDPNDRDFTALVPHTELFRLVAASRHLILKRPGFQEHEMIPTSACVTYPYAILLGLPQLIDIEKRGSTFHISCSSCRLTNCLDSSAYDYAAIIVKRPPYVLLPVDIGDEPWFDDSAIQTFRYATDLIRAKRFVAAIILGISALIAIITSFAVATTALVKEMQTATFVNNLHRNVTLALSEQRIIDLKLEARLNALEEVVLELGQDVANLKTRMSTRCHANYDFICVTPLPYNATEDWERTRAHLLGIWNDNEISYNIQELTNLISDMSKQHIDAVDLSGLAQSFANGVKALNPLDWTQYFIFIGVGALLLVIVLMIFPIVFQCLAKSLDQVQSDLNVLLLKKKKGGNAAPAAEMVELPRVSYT
Syk tyrosine kinase (mouse (endogenous in NMuMG)), sequence (P48025 whole entry): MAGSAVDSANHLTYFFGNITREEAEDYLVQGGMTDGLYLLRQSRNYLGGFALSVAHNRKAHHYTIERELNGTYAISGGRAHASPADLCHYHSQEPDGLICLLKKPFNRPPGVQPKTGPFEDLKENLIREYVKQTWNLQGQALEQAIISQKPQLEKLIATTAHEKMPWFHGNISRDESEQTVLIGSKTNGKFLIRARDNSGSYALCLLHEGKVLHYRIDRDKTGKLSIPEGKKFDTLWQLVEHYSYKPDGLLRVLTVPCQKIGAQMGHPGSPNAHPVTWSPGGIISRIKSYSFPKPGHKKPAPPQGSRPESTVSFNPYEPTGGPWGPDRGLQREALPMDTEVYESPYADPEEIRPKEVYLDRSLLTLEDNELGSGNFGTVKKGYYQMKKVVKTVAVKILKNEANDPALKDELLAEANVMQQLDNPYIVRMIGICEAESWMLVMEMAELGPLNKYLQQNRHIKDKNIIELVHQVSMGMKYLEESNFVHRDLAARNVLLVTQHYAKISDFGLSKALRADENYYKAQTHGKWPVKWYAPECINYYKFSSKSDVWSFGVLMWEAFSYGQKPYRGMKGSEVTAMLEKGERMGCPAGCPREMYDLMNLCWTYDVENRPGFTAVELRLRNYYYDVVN

For “MMTV Env surface unit (SU, gp52) (from UniProt P03374 99-454) (natural protein)”, the percent of SU coprecipitated with Syk was < 34%.
